Laboratory results taken from the nanobody polyreactivity screen of Harvey et al. (2022).

Assay: yeast display, Sf9 membrane polyspecificity reagent, FACS + sequencing; frameworks hold sequencing errors
Outline: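 Nanobodies came from a synthetic yeast display library in Saccharomyces cerevisiae BJ5465, induced with galactose for 36–48 hours and stained for 1 hour at 4 °C with 10% biotinylated, detergent-solubilized Sf9 membrane reagent. Cells were enriched on streptavidin microbeads and then FACS-sorted, with low and high (top ~1%) gates set on anti-HA fluorescence for expression and streptavidin fluorescence for reagent binding. Each polyreactivity label reflects the gate a clone came from. Genes were amplified by colony PCR, sequenced by MiSeq 2 × 250 and filtered by CDR length.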

Sequence	polyreactivity (PSR sort gate)
QVQLEESGGGLVQAGGSLRLSCAASGRTFQYYTMGWYRQAPGKEREFVAAIRDSGGSTYYADSVKGRFTISRDNAKNTVYLQMNSLKPEDTAVYYCNKVPNGPSNYDYWGQGTQVTVSS	high polyreactivity
QVQLVESGGGLVQAGGSLRLSCAASGFIFYSNAMGWYRQSPGKERELVAGISRGGSTYYADSVKGRFTISRDNAKNTVYLQMNRLKPEDTAVYYCAAKISLGDDYWGQGTQVTVSS	low polyreactivity
QVQLVESGVGLVQAGVRLRLSCAASGITLRRYAMGWYRQAPGKEREFVAAISRTGGNTYYADSVKGRFTISRDNAKNTVYLQMNSLKPEDTAVYYCAREVYRHYAPVGYDYWGQGTQVTVSS	high polyreactivity
QVQLQESGGGLVQEGGSLRLSCAASGNISPPADMGWYRQAHGKERELVASIGTGGTTNYADSVKGRFTISRDNAKNSVYLQMNSLKPDDTAVYYCAAVRYEYNPYDYWGQGTQVTVSS	low polyreactivity
QVQLVESGGGLVQAGGSLRLSCAASGRIIYIYAMGWYRQAPGKERELVAAITASSGSTNYADSVKGRFTISRDNAKNTVYLQLNSLKPEDTAVYYCAAAPSRTLLRQSKYYYWGQGTQVTVSS	low polyreactivity
QGQLVESGGGLVQAGGSLRLSCAASGSISLYAMGWYRQAPGKERELVAAITKSGGSTYYADSVKGRFTISRDNAKNTVYLQMHSLKPEDTAVYYCNRGGGERKYNYWGQGTQVTVSS	high polyreactivity
QVQLVESGGGLVQAGGSLRLSCAASGRIFKLYAMGWYRQAPGKERELVAAISKSGGNTYADSVKGRFTISRDNAKNPVYLQMNSLKPEDTAVYYCAATVQSTSDPFDYLGQGTQVTVSS	low polyreactivity
QVQLVESGGGLVQAGGSLRLSCAASGSIFEGYVMGWYRQAPGKERELVATISFSGGSTYYADSVKGRFTISRDNAKNTVYLQMNSLKPEDTAVYYCNALVYHTKGDYGYWGHGTQVTVSS	low polyreactivity
QVQLVESGGGLVQAGGILRLSCAASGFTLLPYAMGWYTQAPGKERELVAAISRRGVSTYYADSVKGRFTLSRDNAKNTVYLPMNSLNPQDTAVNYCAADSYSRATVQYEYWGQCTQVTVSS	high polyreactivity
QVQLVESGGGLVQAGGSLRLSCAASGFTFYTYMGWYRQAPGKERELVAAISWSGDSTYYADSVKGRFTISRDNAKNTVYLQMKSLKPEDTAVYYCAARRVFYNGYYVNVGSFYYWGQGTQVTVSS	low polyreactivity
QVQLVESGGGLVQAGGSLRLSCAAAGLIFSAYAMGWYRQAPGKEREVVAAISRSGGITYYADSVKGRFTISRDNAKNTVYLQMISLKPEDTAVYYCNARWYDPTLKFGYWGQGTQVTVSS	high polyreactivity
QVQLVESGGGLVQAGGSLRLSCAASGSTFRANAMGWYRQAPGKERELVAAISQSGGITYYADSVKGRFTISRDNAKNTVYLQMNSLKPEDTAVYYCAALGYRIKRGRFYYWGQGTQVTVSS	high polyreactivity
QVQLVETGGGLVQAGGSLRLSCAASGRTFLYYAMGWYRPEPGKERELDAAIRRGSSTYYADSVKGRFTISRDKAKNTVYLQMNSLKPEDTAVYYCAARGRYRIGQGRYGKRYDYWGQGTQVTVSS	high polyreactivity
QVQLLETGAGLVHAGGSLRLSCAAYGFIFRDYAMGCYRQAPGKERELVAAIYYSGGSTYYADSVKGRFTISRDNAKNTVYLQLNSLKPEDTAVYYCNAVNPYYAPTDRRVGYDYWGQGTQVTVSS	high polyreactivity
QVQLVESGGGLVQAGGSLRLSCAASGFTSKGYAMGWYRQAPGKERELVATIRSRGGGTYYADSVKGRFTISRDNAKNTVYLQMNSLKPEDTAVYYCAAERKNKYDYWGQGTQVTVSS	high polyreactivity
QVQRVESGGGLVQAGGSLRLSCAASGLTFSYNAMGWYRQAPGKERELVAAITVSGGRTYYADSVKGRFTISRDNAKNTVYLQMNSLKPEDTAVYYCNADYDEGYYGYLRYDYDYWGQGTQVTVSS	high polyreactivity
QFQLVESGGGLVQAGGSVRLSCAASGSTFYLYAMGWYRQAPGKERELVAAITYGGGSTYYADSVKGRFTISRDNAKNTVYLQMNSLKPEDTAVYYCAARWLYWPRYNSLVYTHRDSWGQGTQVTVSS	low polyreactivity
QVHLVESGGGLVQAGGSLRLSCAASGRTFGINAMGWYRQAPGKERELDAVISFGDGGTYYADSVKGRFTISRDNAKNTVYLQMKSLKPEDTAVYYCATDYQSTSVWGGHFVINPYDYWGQGTQVTVSS	low polyreactivity
QVQLVESGGCLVQAGGSLRLSCAASGSIFKWYAMGWYRQAPGKERELVAAITRGGSTNYADSVQGRFTISRDNAKNTVYLQMNSLKPEDTAVYYCNAVYTYRSGFGYWGQGTQVTVSS	low polyreactivity
QVQLVESGGGLVQAGGSLRLSCAASGHNFFYYTMVWYRPAPGKERELVAGITIGGSTNYADSVKGRFTISRDNAKNNVYLVMNSLKPEDTAVYYCNVDKYVYIYSYWEYYYWGQGTQVTVSS	low polyreactivity
QVQLVESGGGLVQAGGSLRLSCAASGRIFRENAMGWYRQAPGKERELVAAINRSGSRTYYADSVKGRFTISRDNAKNTVYLQMNSLKPEDTAVYYCATASSIRYDYWGQGTQVTVSS	high polyreactivity
QVQLVESGGGLVQAGGSLRLSCAASGRTFRPYAMGWYRQAPGKERELVAAISYRGGITNYADSVKGRFTISRDNAKNTVYLQMNSLKPEDTAVYYCNRYAIWVSRFSDLDYWGQGTQVTVSS	low polyreactivity

Sequence	polyreactivity (PSR sort gate)
QDQLVESGGGIVQAGGSLRLSCAASGFTFLYSAMGWYRQAPGKERELVAAINRSGGRTYYADSVKGRFTISRDNAKNTVYLQMNSLKPEDTAVYYCATDTYFRSSVVFRYDYWGQGTQVTVSS	high polyreactivity
QVQLVESGGGLVQAGGSLRISCAASGITFYFNAMGWFRQAPGKERDLVAVITSVGSTNYADSVKGRFTISRDNAKNTDYIQMNSLKPEDTAVYYCYRTSYVKTPTKRYNYWGQGTQVTVSS	low polyreactivity
QVKLVESGGGLVQAGGSLRLSSADSGFIFRRYAMGWYRQAPGKERELVAAINYSGGSTYYADSVKGRFTISRDHAKNTVYLQMNSPKPEYTAVYYCNAYGLRYYEYDYWGQGTQVTVSS	low polyreactivity
QVQLVESGGGLVQAGGSLRLSCAASGSIIARYAMGSYRQAPGKERELVATITRGGSTNYADSVKGRFTISRDNAKNTVYLQMNSLKPEDTAVYYCARTSYGRLDYWGQGTQVTVSS	low polyreactivity
QVHLVESAGGLLQAAASLRLSGDASGSIISSYAMGWYRQAPGKERQLVAAITRSGGSTYYADSVKGRFTISRDYAKKTVYLQMNSLNPEDTAVYYCAARSYVHVFVRMYYWGQGTQVTVSS	high polyreactivity
QVQLVESGGGLVQAGGSLRLSCAASGRTFPYYTMGWYRQAPGKERELVAAISSSGGSTYYADSVKGRFTISRDNAKNTVYLQMNSLKPEDTAVYYCNAGYRWTHFGSWGQGTQVTVSS	low polyreactivity
QVQLVESGGGLVQAGGSLRLSCAASGSIFDFYAMGWYRQAPGKERELVAAIDDIDDSTYYADSVKGRFTISRDNAKNTVYLQMNCLNPEDTAVYYCAAELRPGYRSSYGLIYDYWGQGTQVTVSS	low polyreactivity
QVQLVESGGGLLQAGGSLRLSSAASGFIFTKYNMGWYRQAPGKERELVDAIDTGGNTYADSVKGRFTISRDNAKNTVYLQMNSLKPEDTAVYYCSVDGGEFSSYGYWGQGTQVTVSS	low polyreactivity
QVQLVESGGGLVQAGGRLRLSCAASGLIFRAYAMGWYRQAPGKERELVAAISRRGGSTYYADSVKGRFTISRDNAKNTVYLQMNSLKPEDTAVYYCAATSRVSKSHLYGYWGQGTQVTVSS	high polyreactivity
QVQLVESGGGLVQARGSLRLSCSASGSIIDIYAMGWYRQAPGKERELVAAITGGGSTNYADSVKGRFTISRDNAKNTVYLQMNILKPEDTAVYYCAAGTYLNGGGEYWGQGTQVTVSS	low polyreactivity
QDPLVESGGGLVQAGGSLSLSCAASGRNIPVYAMGWYSQAPGKERELVATISYSGSSTYYADSVKGRFTNSRDNAKNTVYLEMYSLKPEDTAVYYWNADAFGPPGVQYYNWGQGTKVTVSS	low polyreactivity
QVQLVESGGGLLQAAGSLSLSCAASGSIFKYYAMGWYRQAPGKERELVAAISASGGSTSYADSVKGRFTISRDNAKNTVYLQMNSLKPEDTAVYYCAADGVSYAYRYDYWGQGTQVTVSS	low polyreactivity
QVQLVESGGRLVQAGGSLRLSCAAYGSTFQGYAMGWYRQAPGKERELVADISWSGGSTYYADSVKGRFTISRDNAKNTVYLQMNSLKPEDTAVYYCNAVGYLDFEWGQGTQVTVSS	low polyreactivity
QVQRVESGGGIDQAGGSLRLSCAASGLTFSIYAIGWYRQAPGKERDLVDAISWSGGSTYYADSVKGRFTISRDNAKNTVYLQMISLKPEVTAVYYCAARVYRPWWRYDYWGQGTQVSVSS	high polyreactivity
QVQHVESGGGLVQAGGSLRLSCAASGLIFWLNAMGWYRHEPGKEREMVATITAGGDDTNYADPVKGRFTISRDNAKNTVYLQMNSLKPEDTAVYYCAKSRTRSGHYGYDYWGQGTQVTVSS	low polyreactivity
QDQLVESGGGLVQAGGSLRLSCAASGSTLRGYAMGWYRQAPGKEREFVASITSSGSRTYADSVKGRFTISRDNAKNTVYLQMNSLKPEDTAVYYCAANRWPLKGYTSRYWGYWYNYWGQGTQVTVSS	high polyreactivity
QVQLVESGGGLDQAGGSLRLSCAASGRTFYNNAMGWYRPAPGKERELVAAITRGGSTYYADSVKGRFTISRDNAKNTVYLPMNSLKPEDTAVYYCAADGFTRWGRYDYWGQGTQVTVSS	high polyreactivity
QVQLVESGGGLVQAGGSLRLSCAASGSIFLYNAMGWYRQAPGKERELVATITYIGGRTYYADSVKGRFTISRDNAKNTVYLQMNSLKPEDTAVYYCAAEYYVISSPSFYEYDYWGQGTQVTVSS	low polyreactivity
KVQLVESGVGLDQAGGSHRLSCDASGYIFDDYAMGWYRKAPGKERELVAAISSSGTSTNYADSVKVRFTISRDNAKNTVYLQMNSLKPEDTAVYYCAARSAILKSGYLMDYWGLGTQVTVSS	low polyreactivity
QVQLVESGGGLVQAGGSLRLSCADSGSIQYYAMGWYRQAPGKERELVAAITWSGVSTSYADSVKGRFTISRDNAKNTVYLQMNRLKPEDTAVYYCNKDPGTLYGDLDSWGQGTQVTVSS	low polyreactivity
QVQLVESGGGLVQAGGSLRLSCAASGITFKWYAMGWYRQAPGKERELVAAISWSTGSTYYADSVKGRFTISRDNAKNTVYLQMNSLKPEDTSVYYCAARVKRPQTGYDRRYGYWGQGTQVTVSS	high polyreactivity
